Measured values reported in article PMC8469703, “Arginine Methylation of hnRNPK Inhibits the DDX3-hnRNPK Interaction to Play an Anti-Apoptosis Role in Osteosarcoma Cells” (International Journal of Molecular Sciences, 2021).

How the values were obtained:
[1] = target: T1, GST-tagged full-length DDX3 (GST-DDX3^1–662) (human, UniProt O00571 1-662); assay: pull-down; bead-bound GST-DDX3 variants incubated with recombinant hnRNPK or the KI segment; binding buffer PBS with 0.5% NP-40, 0.25% sodium deoxycholate, 5% glycerol, protease inhibitors; 4 °C, 1 h; three washes; SDS-PAGE; details: both partners purified
T1 construct: Vector pGEX-5X-1
T1 sequence (O00571 whole entry): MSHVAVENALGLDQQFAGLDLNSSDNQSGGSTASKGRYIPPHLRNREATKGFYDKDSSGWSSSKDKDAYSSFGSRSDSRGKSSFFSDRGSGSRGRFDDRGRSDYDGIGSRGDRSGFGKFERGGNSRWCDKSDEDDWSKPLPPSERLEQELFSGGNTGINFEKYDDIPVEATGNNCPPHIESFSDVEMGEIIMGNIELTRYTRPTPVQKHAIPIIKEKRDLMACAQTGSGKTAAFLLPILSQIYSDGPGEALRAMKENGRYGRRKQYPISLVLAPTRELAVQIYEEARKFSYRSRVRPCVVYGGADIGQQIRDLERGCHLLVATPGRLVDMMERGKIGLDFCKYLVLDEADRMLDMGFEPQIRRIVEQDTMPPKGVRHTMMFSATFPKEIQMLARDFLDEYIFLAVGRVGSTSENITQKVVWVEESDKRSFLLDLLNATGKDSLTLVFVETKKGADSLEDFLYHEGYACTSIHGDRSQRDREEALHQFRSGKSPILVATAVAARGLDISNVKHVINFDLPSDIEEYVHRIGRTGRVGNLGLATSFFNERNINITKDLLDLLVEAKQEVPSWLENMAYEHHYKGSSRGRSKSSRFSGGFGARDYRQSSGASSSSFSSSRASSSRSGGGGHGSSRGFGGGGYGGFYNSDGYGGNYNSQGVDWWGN

[2] = target: T2, GST-tagged C-terminal region of DDX3 (GST-DDX3^535–662) (human, UniProt O00571 535-662); assay: as above; details: both partners purified
T2 construct: Vector pGEX-5X-1; also called DDX3 C-terminus
T2 sequence (O00571 535-662): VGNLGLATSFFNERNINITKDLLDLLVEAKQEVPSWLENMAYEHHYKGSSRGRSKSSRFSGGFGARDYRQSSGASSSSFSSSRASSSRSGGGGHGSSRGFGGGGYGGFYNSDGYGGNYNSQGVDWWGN

B1: His6-tagged Trx-KI (K-interactive region of hnRNPK, amino acids 240–336) (domain or fragment, UniProt P61978 240-336, looked up)
chain: TMMFDDRRGRPVGFPMRGRGGFDRMPPGRGGRPMPPSRRDYDDMSPRRGPPPPPPGRGGRGGSRARNLPLPPPPPPRGGDLMAYDRRGRPGDRYDGM
notes: also called his-KI; KI segment; source: E. coli BL21 DE3 pLysS, purified (Ni-NTA agarose, dialysis)
B1: binds [1]; binds [2].
